Assay results taken from the MegaScale stability set (Tsuboyama et al. 2023).

B1: HEEH_KT_rd6_3632 (parent)
chain: DAEELIELVERALKEGREIILLGVRITSEEAGKWFIEWIRRFL
B2: 6NMW (parent)
chain: QGDIVVALYPYDGIHPDDLSFKKGEKMKVLEEHGEWWKAKSLLTKKEGFIPSNYVAKLN

Variants of: B1
Experiment: folding stability dG (cDNA display proteolysis); higher = more stable
Conditions: PBS, room temperature

Folding stability dG [kcal/mol]: each site, then its substitutions
R41: C 4.34, A 3.62, H 3.64, W 4.14, I 3.74, N 3.57, F 3.95, K 3.76, E 3.37, S 3.72, P 2.84, Q 3.6, Y 3.81, M 3.93, V 3.7, T 3.63, G 3.45, L 3.81, D 3.05
F42: L 3.73, R 3.29, M 3.76, D 2.51, P 2.5, I 3.67, Y 3.72, Q 3.29, K 3.15, E 2.91, N 3.19, G 3.06, T 3.35, A 3.21, W 4.07, H 3.45, S 3.15, V 3.58
L43: R 3.03, I 3.61, A 3.35, N 2.97, E 2.91, K 3.09, P 2.62, Q 3.22, F 4.01, M 3.81, S 3.17, Y 3.81, V 3.48, D 2.75, H 3.17, W 3.89, G 3.03, T 3.24
R40: F 3.87, A 3.39, M 3.89, H 3.32, W 3.85, Q 3.32, D 2.87, T 3.46, Y 3.69, C 4.03, V 3.48, I 3.77, E 2.85, L 3.83, K 3.69, S 3.27, P 2.68, G 3.04, N 3.14
I39: N 2.64, P 2.22, W 3.23, R 2.71, V 3.62, Y 3.43, T 2.46, Q 2.63, S 2.66

Variants of: B2
Experiment: as above
Conditions: PBS, room temperature

Folding stability dG [kcal/mol] of substitutions, site by site:
G2: L 3.21, A 3.27, Q 3.21, E 3.29, V 3.15, K 2.9, C 4.54, P 2.98, I 3.12, T 3.29, F 3.9, S 3.54, H 3.74, N 3.5, W 3.93, M 3.38, D 3.46, Y 3.95, R 3
I4: F 2.76, H 1.74, G 0.464, N 0.755, L 3, D 1.12, K 0.841, M 2.52, E 1.53, Y 2.98, C 2.58, Q 1.21, T 2.35, R 0.874, W 2.71, V 3.08, P -0.054, S 0.94, A 0.908
A7: L -0.675, Y -0.494, E 0.11, I -0.263, G 2.64, V 0.268, T 1.07, M 0.441, F -0.602, S 1.39, C 1.42
L8: V 2.29, Q 1.62, H 1.06, R 1.94, A 0.801, K 2.3, N 1.23, W 1.21, M 2.78, D -0.146, S 0.987, I 3.04, E 0.697, G 0.062, F 1.24, T 1.24, Y 1.02, C 3.47
I14: P 2.57, L 3.51, N 3.02, G 2.9, C 4.14, V 3.97, E 2.98, F 2.99, D 2.68, S 3.09, H 3.13, A 3.22, W 2.68, Y 3.08, T 3.68, M 3.36, K 3.81
